Drawing on the Immune Epitope Database (IEDB), this text covers Kd for 51 sequences.

What is called Kd is the concentration at which binding is half-saturated.

Targets include HLA-A*02:01; HLA-A*24:02; HLA-A*01:01; HLA-B*44:02; HLA-A*03:01; HLA-B*07:02.
Holding throughout (experiment): IEDB peptide-MHC binding, purified MHC/competitive/fluorescence; filed as Kd, often an IC50 or EC50 that approximates it; ≥ and ≤ were set here for values at or beyond the usual limits of such assays
What all share (conditions): source organism: Plasmodium falciparum

Sequence CKMEKCSSV displayed a Kd with HLA-A*02:01 not below 100 µM. CKMEKCSSVF displayed a Kd with HLA-A*24:02 not below 250 µM.

For CSSVFNVVN, in the assay with HLA-A*01:01, the dissociation constant (Kd) was not below 82.5 µM. As to DELDYANDI, in the assay with HLA-B*44:02, the Kd was not below 277 µM. On to DENANANNA, for which the Kd with HLA-B*44:02 was not below 896 µM.

Turning to ELDYENDIEK, the Kd in the assay with HLA-A*01:01 was not below 100 µM.

In the assay with HLA-A*24:02, EWSPCSVTCG yielded a Kd not below 685 µM. As to HIKEYLNKI, the Kd with HLA-A*02:01 was not below 259 µM. As for HITEYLKKI, the Kd with HLA-A*02:01 is not below 148 µM. IEKKICKMEK: the dissociation constant (Kd) in the assay with HLA-A*03:01 is not below 100 µM. As to IEQYLKKIQY, the Kd in the assay with HLA-A*01:01 was not below 100 µM; in the assay with HLA-B*44:02, not below 157 µM. With IQNSLSTEW, the Kd was not below 21.3 µM with HLA-A*24:02 and not below 136 µM with HLA-B*44:02. In the assay with HLA-B*44:02, KDELDYENDI yielded a Kd not below 100 µM. In the assay with HLA-B*44:02, KEYLNKIQNS returned a Kd not below 100 µM. In the case of KMEKCSSVF, the Kd with HLA-A*01:01 and with HLA-B*07:02 was not below 100 µM each time. As for KPGSADKPKD, the Kd in the assay with HLA-B*07:02 is not below 100 µM. On the same count and under the same terms, the figure for KPGSANKPKD is not below 100 µM. In turn, LDYANDIEK yielded a Kd with HLA-A*03:01 not below 100 µM. In the case of LIMVLSFLF, the Kd with HLA-A*24:02 is 19.3 µM. LSTEWSPCS: the Kd with HLA-A*01:01 was not below 100 µM. In the case of MEKCSSVFN, in the assay with HLA-B*44:02, the Kd is not below 143 µM. With MPNDPNRNV, the Kd was not below 511 µM in the assay with HLA-B*07:02 and not below 100 µM in the assay with HLA-B*44:02.

In the assay with HLA-B*44:02, NEEPSDKHI gave a Kd not below 100 µM. As for NEEPSDKHIK, the Kd with HLA-A*01:01 and in the assay with HLA-B*44:02 was not below 100 µM each time. Regarding NEEPSDQHI, the Kd with HLA-B*44:02 was not below 100 µM. With NPDPNANPNV, the Kd with HLA-B*07:02 was not below 100 µM. NPNANPNAN yielded a Kd with HLA-B*07:02 not below 100 µM. Take NPNANPNANP: in the assay with HLA-B*07:02, the equilibrium dissociation constant (Kd) was not below 100 µM. Turning to NPNVDPNANP, the Kd in the assay with HLA-B*07:02 was not below 100 µM. On to NSSIGLIMV, for which, in the assay with HLA-A*01:01, the Kd was not below 215 µM. Regarding NVDENANAN, the Kd in the assay with HLA-A*01:01 was not below 100 µM. In the assay with HLA-A*01:01, NVDENANANN showed a Kd not below 667 µM. NVDPNANPNV gave a Kd with HLA-A*01:01 not below 100 µM.

For the sequence PSDKHIEQY, the Kd with HLA-A*01:01 is 2 µM. Take PSDKHIKEY: the Kd with HLA-A*01:01 is not below 24.8 µM.

In the assay with HLA-A*01:01, PSDKHITEY gave a Kd of 2.67 µM. In other words, the single-digit micromolar range. QLDYENDIEK: the Kd with HLA-A*01:01 is not below 726 µM; with HLA-A*03:01, not below 100 µM. QVRIKPGSA: in the assay with HLA-B*07:02, the Kd was not below 134 µM. RIKPGSADK returned a Kd in the assay with HLA-A*03:01 of 17.7 µM. For the sequence RIKPGSANK, the Kd in the assay with HLA-A*03:01 was not below 21.3 µM.

In turn, SADKPKDQLD registered a Kd with HLA-A*01:01 of 8.97 µM. For SPCSVTCGNG, the Kd in the assay with HLA-B*07:02 was not below 100 µM.

STEWSPCSV returned a Kd with HLA-A*01:01 of 3.18 µM.

For SVFNVVNSSI, the Kd in the assay with HLA-B*07:02 was not below 100 µM; with HLA-A*02:01, not below 342 µM; with HLA-A*03:01, not below 100 µM. With SVTCGNGIQV, the Kd was not below 100 µM in the assay with HLA-B*07:02 and not below 489 µM with HLA-A*02:01.

In the assay with HLA-B*44:02, TEWSPCSVT registered a Kd not below 100 µM. Still for that read-out and setting: with TEYLKKIQN the figure was not below 100 µM. Take VTCGNGIQV: the equilibrium dissociation constant (Kd) in the assay with HLA-A*01:01 and with HLA-A*03:01 was not below 100 µM in each case. In turn, YLKIIQNSL came in with a Kd in the assay with HLA-A*02:01 of 4.88 µM. This lies in the single-digit micromolar range. Consider YLKKIQNSL, for which the Kd in the assay with HLA-A*24:02 is 11.2 µM; with HLA-B*07:02, 9.2 µM; with HLA-A*02:01 it was 2.18 µM.

Turning to YLKKIQYSL, the Kd with HLA-A*02:01 amounted to 2.58 µM.
